Substitutions are numbered along the chain they refer to.
B1: 13735 7G3_H1.86_L1_Fab_His (Fab, V domains shown)
VH: QVQLVQSGAEVKKPGASVKVSCKASGYTFTDYYMKWVRQAPGQSLEWMGDIIPSNGATFYNQKFKGKATLTVDRSTSTAYMELSSLRSEDTAVYYCTRSHLLRASWFAYWGQGTLVTVSS
VL: DFVMTQSPDSLAVSLGERATINCKSSQSLLNSGNQKNYLTWYQQKPGQPPKLLIYWASTRESGVPDRFTGSGSGTDFTLTISSLQAEDVAVYYCQNDYSYPYTFGGGTKLEIKR
notes: also called XENP13735; copies: 1 + 1
B2: 13737 7G3_H1.88_L1_Fab_His (Fab, V domains shown)
VH: B1 VH with P41H, K65Q, K67R, A68V, L70M
VL: B1 VL
notes: also called XENP13737; copies: 1 + 1
B3: 13738 7G3_H1.89_L1_Fab_His (Fab, V domains shown)
VH: B1 VH with M48I, K65Q, K67R, A68V, L70M
VL: B1 VL
notes: also called XENP13738; copies: 1 + 1
B4: 13740 7G3_H1.91_L1_Fab_His (Fab, V domains shown)
VH: B1 VH with K65Q, K67R, A68V, L70M, E82H
VL: B1 VL
notes: also called XENP13740; copies: 1 + 1
B5: 13741 7G3_H1.92_L1_Fab_His (Fab, V domains shown)
VH: B1 VH with K65Q, K67R, A68V, L70M, R87T
VL: B1 VL
notes: also called XENP13741; copies: 1 + 1
B6: 13743 7G3_H1.94_L1_Fab_His (Fab, V domains shown)
VH: B1 VH with R38K, A40S, P41H, Q43K, K65Q, K67R, A68V, L70M
VL: B1 VL
notes: also called XENP13743; copies: 1 + 1
B7: 13855 7G3_H1_L1.57_Fab_His (Fab, V domains shown)
VH: B1 VH with K65Q, K67R, A68V, L70M
VL: B1 VL with S32T
notes: also called XENP13855
B8: 13961 7G3_H1.107_L1_Fab_His (Fab, V domains shown)
VH: B1 VH with V5Q, T97A
VL: B1 VL
notes: also called XENP13961
B9: 13963 7G3_H1.109_L1_Fab_His (Fab, V domains shown)
VH: B1 VH with V5Q, R38K, A40S, P41H, Q43K, T97A
VL: B1 VL
notes: also called XENP13963
B10: 13965 7G3_H1.107_L1.57_Fab_His (Fab, V domains shown)
VH: B1 VH with V5Q, T97A
VL: B1 VL with S32T
notes: also called XENP13965

What follows are binders tested against T1, human CD123 (human, UniProt P26951 19-305, limits assumed) (assay: off-rate screen of Fab-His on a Biacore CD123 chip (Example 3), relative to 7G3 H1L1 Fab).
T1 construct: Construct on the chip is not described; also called CD123 chip
T1 sequence (looked up): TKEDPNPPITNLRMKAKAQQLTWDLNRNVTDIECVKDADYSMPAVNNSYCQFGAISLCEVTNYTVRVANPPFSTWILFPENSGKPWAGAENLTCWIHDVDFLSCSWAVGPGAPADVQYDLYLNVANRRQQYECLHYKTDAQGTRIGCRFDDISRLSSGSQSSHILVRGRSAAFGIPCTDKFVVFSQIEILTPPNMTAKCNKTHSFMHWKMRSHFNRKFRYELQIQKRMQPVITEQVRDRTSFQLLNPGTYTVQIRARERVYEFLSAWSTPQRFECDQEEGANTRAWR

Q: For B1, which “Fold improvement in off-rate vs. H1L1” value is on record?
A: Its value is 4.61 fold.

Q: How did the “Fold improvement in off-rate vs. H1L1” value turn out when B2 was run?
A: The value was 0.96 fold.

Q: How did the “Fold improvement in off-rate vs. H1L1” value turn out when B3 was run?
A: Its value is 1.29 fold.

Q: For B4, which “Fold improvement in off-rate vs. H1L1” value is on record?
A: The value was 1.04 fold.

Q: With B5 as the binder, how does the “Fold improvement in off-rate vs. H1L1” value read?
A: Its value is 1.89 fold.

Q: Which “Fold improvement in off-rate vs. H1L1” value does the source give for B6 here?
A: Its value is 0.65 fold.

Q: For B7, which “Fold improvement in off-rate vs. H1L1” value is on record?
A: The value was 0.84 fold.

What follows are binders tested against T1, human CD123 (assay: Biacore, Fab-His on CD123 (Example 3; the sheet names no assay)).

Q: For B8, which Ka is on record?
A: The Ka was 6.79e+09 M⁻¹.

Q: And the Kd?
A: The Kd was 0.147 nM.

Q: What about the koff of the same binder?
A: Its koff is 8.84e-05 s⁻¹.

Q: And the kon?
A: Its kon is 600000 M⁻¹ s⁻¹.

Q: With B9 as the binder, how does the Ka read?
A: The Ka was 1.35e+10 M⁻¹.

Q: And the Kd?
A: Its Kd is 0.0742 nM.

Q: And the koff?
A: The koff was 5.53e-05 s⁻¹.

Q: And the kon?
A: Its kon is 745000 M⁻¹ s⁻¹.

Q: B10 was tested. Which Ka did it give?
A: The Ka was 1.6e+10 M⁻¹.

Q: And the Kd?
A: The Kd was 0.0624 nM.

Q: What about the koff of the same binder?
A: Its koff is 3.82e-05 s⁻¹.

Q: And the kon?
A: The kon was 612000 M⁻¹ s⁻¹.
